T1: recombinant human CD70 (AviTag, polyhistidine tag and chicken tenascin trimerization domain fused to the … (chicken; human, UniProt P10039 110-139, limits assumed)
T1 construct: domain: trimerization domain; Expressed in Expi293, purified by IMAC and SEC; Copies 3 is inferred from the trimerization domain; not shown: AviTag; polyhistidine tag
T1 sequence: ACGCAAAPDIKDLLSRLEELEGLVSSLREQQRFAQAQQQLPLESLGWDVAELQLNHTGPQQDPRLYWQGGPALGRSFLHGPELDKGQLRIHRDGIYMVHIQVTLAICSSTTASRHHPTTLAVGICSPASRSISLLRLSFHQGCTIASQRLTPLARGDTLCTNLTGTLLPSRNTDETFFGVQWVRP

T2: human CD70 expressed on parental (WT) Jurkat cells (human, UniProt P32970 1-193)
T2 sequence: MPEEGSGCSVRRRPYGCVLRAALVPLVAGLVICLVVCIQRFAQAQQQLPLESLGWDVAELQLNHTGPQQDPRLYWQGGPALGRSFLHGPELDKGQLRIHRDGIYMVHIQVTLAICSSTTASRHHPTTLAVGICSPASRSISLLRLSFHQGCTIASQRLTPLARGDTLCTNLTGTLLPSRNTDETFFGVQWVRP

T3: recombinant biotinylated human CD70 protein (human, UniProt P32970 39-193, biotinylated (site not stated))
T3 construct: also called recombinant biotinylated hCD70 protein
T3 sequence: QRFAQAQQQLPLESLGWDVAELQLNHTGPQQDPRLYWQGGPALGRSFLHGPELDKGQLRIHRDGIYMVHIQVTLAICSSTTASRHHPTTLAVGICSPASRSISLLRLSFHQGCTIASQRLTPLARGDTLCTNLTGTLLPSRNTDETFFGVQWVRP

B1: P12F02 anti-CD70 scFv-Fc fusion (Fc fusion)
chain: EVQLLESGGGLVQPGGSLRLSCAASGFTFSSYAMSWVRQAPGKGLEWVSTISGTGGTTYYADSVKGRFTISRDNSKNTLYLQMNSLRAEDTAVYYCAKVRAGIDPTASDVWGQGTLVTVSSGGGGSGGGGSGGGGSGGGGSELQSVLTQPPSASGTPGQRVTISCSGSTSNIGRNYVYWYQQLPGTAPKLLIYRTNQRPSGVPDRFSGSKSGTSASLAISGLRSEDEADYYCAAWDDSLSGRVFGTGTKLTVL
notes: scFv-Fc expressed in Expi293; not shown: part of the hinge and Fc from a modified human IgG2
B2: P13F04 anti-CD70 scFv-Fc fusion (Fc fusion)
chain: QVQLVQSGAEVKKPGSSVKVSCKASGGTFSSYAISWVRQAPGQGLEWMGEIIPIFGTASYAQKFQGRVTITADESTSTAYMELSSLRSEDTAVYYCARAGWDDSWFDYWGQGTLVTVSSGGGGSGGGGSGGGGSGGGGSELQSVLTQPPSASGTPGQRVTISCSGSNSNIGTNYVSWYQQLPGTAPKLLIYRSSRRPSGVPDRFSGSKSGTSASLAISGLRSEDEADYYCAAWDGSLSGHWVFGTGTKLTVL
notes: as for B1
B3: P07D03 CD70-specific CAR (other)
chain: EVQLVQSGAEVKKPGESLKISCKGSGYRFTSYWIGWVRQMPGKGLEWMGSIYPDDSDTRYSPSFQGQVTISADKSISTAYLQWSSLKASDTAMYYCASSTVDYPGYSYFDYWGQGTLVTVSSGGGGSGGGGSGGGGSGGGGSELQSVLTQPPSASGTPGQRVTISCSGSRSNIGSNYVYWYQQLPGTAPKLLIYRNNQRPSGVPDRFSGSKSGTSASLAISGLRSEDEADYYCASWDGSLSAVVFGTGTKLTVLTTTPAPRPPTPAPTIASQPLSLRPEACRPAAGGAVHTRGLDFACDIYIWAPLAGTCGVLLLSLVITLYCKRGRKKLLYIFKQPFMRPVQTTQEEDGCSCRFPEEEEGGCELRVKFSRSADAPAYQQGQNQLYNELNLGRREEYDVLDKRRGRDPEMGGKPRRKNPQEGLYNELQKDKMAEAYSEIGMKGERRRGKGHDGLYQGLSTATKDTYDALHMQALPPR
notes: Chimeric antigen receptor on transduced Jurkat cells; the signal peptide is left out
B4: P12B09 CD70-specific CAR (other)
chain: EVQLLESGGGLVQPGGSLRLSCAASGFTFSQYSMSWVRQAPGKGLEWVSAISGGGVSTYYADSVKGRFTISRDNSKNTLYLQMNSLRAEDTAVYYCASDISDSGGSHWYFDYWGQGTLVTVSSGGGGSGGGGSGGGGSGGGGSELDIQMTQSPSSLSASVGDRVTITCRASQYIGRYLNWYQQKRGKAPKLLIHGATSLASGVPSRFSGSGSGTDFTLTISSLQPEDFATYYCQQSYSTTSPTFGQGTKVEIKTTTPAPRPPTPAPTIASQPLSLRPEACRPAAGGAVHTRGLDFACDIYIWAPLAGTCGVLLLSLVITLYCKRGRKKLLYIFKQPFMRPVQTTQEEDGCSCRFPEEEEGGCELRVKFSRSADAPAYQQGQNQLYNELNLGRREEYDVLDKRRGRDPEMGGKPRRKNPQEGLYNELQKDKMAEAYSEIGMKGERRRGKGHDGLYQGLSTATKDTYDALHMQALPPR
notes: as for B3
B5: P08G02 CD70-specific CAR (other)
chain: EVQLVQSGAEVKKPGESLKISCKGSGYTFPSSWIGWVRQMPGKGLEWMGIIYPDTSHTRYSPSFQGQVTISADKSISTAYLQWSSLKASDTAMYYCARASYFDRGTGYSSWWMDVWGQGTLVTVSSGGGGSGGGGSGGGGSGGGGSELDIQMTQSPSSLSASVGDRVTITCRASQSIYDYLHWYQQKPGKAPKLLIYDASNLQSGVPSRFSGSGSGTDFTLTISSLQPEDFATYYCQQSYTTPLFTFGQGTKVEIKTTTPAPRPPTPAPTIASQPLSLRPEACRPAAGGAVHTRGLDFACDIYIWAPLAGTCGVLLLSLVITLYCKRGRKKLLYIFKQPFMRPVQTTQEEDGCSCRFPEEEEGGCELRVKFSRSADAPAYQQGQNQLYNELNLGRREEYDVLDKRRGRDPEMGGKPRRKNPQEGLYNELQKDKMAEAYSEIGMKGERRRGKGHDGLYQGLSTATKDTYDALHMQALPPR
notes: as for B3
B6: P02B10 CD70-specific CAR (other)
chain: EVQLLESGGGLVQPGGSLRLSCAASGFAFSNYAMSWVRQAPGKGLEWVSAIRGGGGSTYYADSVKGRFTISRDNSKNTLYLQMNSLRAEDTAVYYCARDFISGTWYPDYWGQGTLVTVSSGGGGSGGGGSGGGGSGGGGSELQSVLTQPPSASGTPGQRVTISCSGSSSNIGSNYVYWYQQLPGTAPKLLIYRNNQRPSGVPDRFSGSKSGTSASLAISGLRSEDEADYYCAAWDDSLSGVVFGGGTKLTVLTTTPAPRPPTPAPTIASQPLSLRPEACRPAAGGAVHTRGLDFACDIYIWAPLAGTCGVLLLSLVITLYCKRGRKKLLYIFKQPFMRPVQTTQEEDGCSCRFPEEEEGGCELRVKFSRSADAPAYQQGQNQLYNELNLGRREEYDVLDKRRGRDPEMGGKPRRKNPQEGLYNELQKDKMAEAYSEIGMKGERRRGKGHDGLYQGLSTATKDTYDALHMQALPPR
notes: as for B3
B7: P08F08 CD70-specific CAR (other)
chain: EVQLVQSGAEVKKPGESLKISCKGSGYGFTSYWIGWVRQMPGKGLEWMGIIHPDDSDTKYSPSFQGQVTISADKSISTAYLQWSSLKASDTAMYYCASSYLRGLWGGYFDYWGQGTLVTVSSGGGGSGGGGSGGGGSGGGGSELQSVLTQPPSASGTPGQRVTISCSGSSSNIGSNYVNWYQQLPGTAPKLLIYGDYQRPSGVPDRFSGSKSGTSASLAISGLRSEDEADYYCATRDDSLSGSVVFGTGTKLTVLTTTPAPRPPTPAPTIASQPLSLRPEACRPAAGGAVHTRGLDFACDIYIWAPLAGTCGVLLLSLVITLYCKRGRKKLLYIFKQPFMRPVQTTQEEDGCSCRFPEEEEGGCELRVKFSRSADAPAYQQGQNQLYNELNLGRREEYDVLDKRRGRDPEMGGKPRRKNPQEGLYNELQKDKMAEAYSEIGMKGERRRGKGHDGLYQGLSTATKDTYDALHMQALPPR
notes: as for B3
B8: P08A02 CD70-specific CAR (other)
chain: EVQLVQSGAEVKKPGESLKISCKGSGYTFTNYWIAWVRQMPGKGLEWMGIIYPDGSDTRYSPSFQGQVTISADKSISTAYLQWSSLKASDTAMYYCARDITSWYYGEPAFDIWGQGTLVTVSSGGGGSGGGGSGGGGSGGGGSELQSVLTQPPSASGTPGQRVTISCSGSSSNIGSNYVYWYQQLPGTAPKLLIYRNNQRPSGVPDRFSGSKSGTSASLAISGLRSEDEADYYCATWDDSLGSPVFGTGTKLTVLTTTPAPRPPTPAPTIASQPLSLRPEACRPAAGGAVHTRGLDFACDIYIWAPLAGTCGVLLLSLVITLYCKRGRKKLLYIFKQPFMRPVQTTQEEDGCSCRFPEEEEGGCELRVKFSRSADAPAYQQGQNQLYNELNLGRREEYDVLDKRRGRDPEMGGKPRRKNPQEGLYNELQKDKMAEAYSEIGMKGERRRGKGHDGLYQGLSTATKDTYDALHMQALPPR
notes: as for B3
B9: P08E02 CD70-specific CAR (other)
chain: EVQLVQSGAEVKKPGESLKISCKGSGYSFTSSWIGWVRQMPGKGLEWMGIIYPGDSDTRYSPSFQGQVTISADKSISTAYLQWSSLKASDTAMYYCAKGLSQAMTGFGFDYWGQGTLVTVSSGGGGSGGGGSGGGGSGGGGSELDIQMTQSPSSLSASVGDRVTITCRASQSISRYLNWYQQKPGKAPKLLIYAASILQTGVPSRFSGSGSGTDFTLTISSLQPEDFATYYCQQSYSTTMWTFGQGTKVEIKTTTPAPRPPTPAPTIASQPLSLRPEACRPAAGGAVHTRGLDFACDIYIWAPLAGTCGVLLLSLVITLYCKRGRKKLLYIFKQPFMRPVQTTQEEDGCSCRFPEEEEGGCELRVKFSRSADAPAYQQGQNQLYNELNLGRREEYDVLDKRRGRDPEMGGKPRRKNPQEGLYNELQKDKMAEAYSEIGMKGERRRGKGHDGLYQGLSTATKDTYDALHMQALPPR
notes: as for B3

target: T1, recombinant human CD70 (AviTag, …); assay: SPR (Biacore 8K, 37 C): CD70 captured via anti-AviTag antibody on C1 chip, scFv-Fc as analyte; 1:1 Langmuir fit
Experimental: The antibody binding kinetics were determined by surface plasmon resonance (Biacore 8K, GE Healthcare Bio-Sciences, Pittsburgh Pa.) at 37° C. in HBS-T+ (0.01 M HEPES pH 7.4, 0.15 M NaCl, 0.05% v/v Tween20, 1 mg/mL BSA). Recombinant human CD70 diluted in HBS-T+ was captured on a C1 chip immobilized with an anti-AviTag™ antibody. Purified anti-CD70 scFv-Fc fusions were serially diluted into HBS-T+, injected at 30 uL/min for 2-4 min, dissociation monitored for 10 min then the surface regenerated with 75 mM phosphoric acid between injections. Buffer cycles were collected for each anti-CD70 scFv-Fc fusion for double-referencing purposes (double-referencing as described in Myszka, D. G. Improving biosensor analysis. J. Mol. Recognit. 12, 279-284 (1999)). Kinetic association rates (kₒₙ) and dissociation rates (koff) were obtained simultaneously by fitting the double-referenced sensorgrams globally to a 1:1 Langmuir with mass transport model using Biacore 8K Evaluation Software (GE Healthcare Bio-Sciences, Pittsburgh Pa.) then used to calculate an equilibrium dissociation constant (KD) from the kinetic rate constants (KD=koff/kₒₙ). The data was fit to a 1:1 steady state affinity model using Biacore 8K Evaluation Software to determine a steady state equilibrium dissociation constant (SS KD) as needed.

Kd | koff | kon | t1/2 | Binder
5.7 nM | 0.00155 s⁻¹ | 275000 M⁻¹ s⁻¹ | 7.4 min | B1
205 nM | 0.02 s⁻¹ | 97700 M⁻¹ s⁻¹ | 0.6 min | B2

target: T2, human CD70 expressed on parental (WT) …; assay: cell-based or functional assay

Activation ratio (WT/KO) | Binder
3.04 | B3
4.34 | B4
2.11 | B5
2.81 | B6
3.42 | B7
14.4 | B8
3.29 | B9

target: T3, recombinant biotinylated human CD70 …; assay: flow cytometry: CAR-transduced Jurkat cells incubated with recombinant biotinylated human CD70, streptavidin-PE; percent of cells binding
Experimental: On Day 5, transduced cells were stained with human anti-CD69 antibody conjugated to PE-Cy7 and acquired on a flow cytometer to obtain percentage of CD69+ population for each CAR. […] Activation ratios (WT activation/KO activation) and protein binding were used to rank CARs.
Table 7: Activation ratio and protein binding of phage CARs were determined in the Jurkat screen. Activation ratio was used for in vitro characterization of CARs. Activation ratio was determined by calculating the ratio of the percentage of CD69 expression on WT Jurkat cells transduced with CD70 CAR (WT) to that on CD70 knockout Jurkat cells transduced with CD70 CAR (KO). A higher activation ratio indicates target-dependent activation. […] Protein binding values indicate the percentage of CD3+ CAR T cells that bind to human CD70 protein.

Protein binding (%) | Binder
0.68% | B3
5.74% | B4
77.8% | B5
77.9% | B6
35.9% | B7
20.7% | B8
57.1% | B9
